{"source": "patent US20010029293A1", "key": {"[1]": {"biological_target": "LFA-1 (CD11a/CD18) on cells (human) (UniProt P20701)", "sequence (P20701 26-1170, chain 1 of 2)": "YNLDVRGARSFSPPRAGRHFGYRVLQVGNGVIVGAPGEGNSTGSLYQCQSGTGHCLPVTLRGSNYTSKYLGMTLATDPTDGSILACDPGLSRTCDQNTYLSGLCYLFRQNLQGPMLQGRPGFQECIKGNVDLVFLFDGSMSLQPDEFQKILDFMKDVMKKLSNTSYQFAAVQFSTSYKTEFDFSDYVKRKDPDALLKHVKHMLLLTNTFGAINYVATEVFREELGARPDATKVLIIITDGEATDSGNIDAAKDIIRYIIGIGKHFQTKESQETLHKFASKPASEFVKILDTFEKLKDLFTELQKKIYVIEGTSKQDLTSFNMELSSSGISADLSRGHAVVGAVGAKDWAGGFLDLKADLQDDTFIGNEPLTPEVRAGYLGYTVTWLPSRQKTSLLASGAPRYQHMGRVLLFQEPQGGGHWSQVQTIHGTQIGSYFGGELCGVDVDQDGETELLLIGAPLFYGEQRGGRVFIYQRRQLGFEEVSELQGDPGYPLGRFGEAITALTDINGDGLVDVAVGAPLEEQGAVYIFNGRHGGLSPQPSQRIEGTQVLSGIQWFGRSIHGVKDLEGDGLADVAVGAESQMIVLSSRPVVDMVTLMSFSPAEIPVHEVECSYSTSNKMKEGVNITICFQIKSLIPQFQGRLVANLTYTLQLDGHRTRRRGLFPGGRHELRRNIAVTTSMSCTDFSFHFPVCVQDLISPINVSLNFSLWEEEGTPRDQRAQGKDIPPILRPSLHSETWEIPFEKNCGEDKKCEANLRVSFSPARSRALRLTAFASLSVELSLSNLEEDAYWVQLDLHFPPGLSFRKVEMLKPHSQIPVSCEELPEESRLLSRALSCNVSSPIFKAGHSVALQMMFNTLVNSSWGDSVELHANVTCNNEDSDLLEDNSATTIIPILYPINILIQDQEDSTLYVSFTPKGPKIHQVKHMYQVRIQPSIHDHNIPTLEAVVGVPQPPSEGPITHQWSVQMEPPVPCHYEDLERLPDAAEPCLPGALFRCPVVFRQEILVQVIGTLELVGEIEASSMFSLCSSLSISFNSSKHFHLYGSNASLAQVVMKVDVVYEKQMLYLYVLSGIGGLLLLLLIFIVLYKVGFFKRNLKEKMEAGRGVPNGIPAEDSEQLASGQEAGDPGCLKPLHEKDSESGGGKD", "sequence (P05107 23-769, chain 2 of 2, further chain)": "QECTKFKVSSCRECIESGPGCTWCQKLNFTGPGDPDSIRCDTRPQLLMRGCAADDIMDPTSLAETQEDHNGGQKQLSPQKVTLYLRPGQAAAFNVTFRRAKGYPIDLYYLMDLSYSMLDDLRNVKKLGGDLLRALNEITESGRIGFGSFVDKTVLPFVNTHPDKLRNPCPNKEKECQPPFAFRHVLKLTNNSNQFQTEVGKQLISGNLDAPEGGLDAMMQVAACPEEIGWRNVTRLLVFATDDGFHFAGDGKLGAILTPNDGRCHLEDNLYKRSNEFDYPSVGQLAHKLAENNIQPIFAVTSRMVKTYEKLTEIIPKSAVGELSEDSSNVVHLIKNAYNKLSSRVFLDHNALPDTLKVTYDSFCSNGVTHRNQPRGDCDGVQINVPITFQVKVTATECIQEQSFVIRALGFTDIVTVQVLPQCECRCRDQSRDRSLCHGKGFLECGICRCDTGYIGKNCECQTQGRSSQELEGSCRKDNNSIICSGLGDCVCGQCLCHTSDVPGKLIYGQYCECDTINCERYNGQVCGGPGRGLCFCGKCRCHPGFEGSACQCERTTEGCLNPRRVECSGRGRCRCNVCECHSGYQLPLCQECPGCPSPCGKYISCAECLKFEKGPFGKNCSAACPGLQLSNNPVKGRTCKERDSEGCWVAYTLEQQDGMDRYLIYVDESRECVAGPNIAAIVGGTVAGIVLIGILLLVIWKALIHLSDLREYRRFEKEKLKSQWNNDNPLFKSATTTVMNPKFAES", "assay": "cell adhesion to coated shICAM-R, peptide 1-2 mg/ml"}, "[2]": {"biological_target": "LFA-1 (CD11a/CD18) on cells (human) (UniProt P20701)", "assay": "neutrophil adhesion to coated ICAM-R/Ig, mAb 15 µg/ml"}, "[3]": {"biological_target": "LFA-1 (CD11a/CD18) on cells (human) (UniProt P20701)", "assay": "JY cell adhesion to coated shICAM-R, mAb 10 µg/ml"}}}
{"substance": "ICAM-R peptide 72-76 (NGSQI)", "values": [{"measurement": "% Inhibition CD18-Dependent Binding (SKW3)", "setting": "[1]", "value": 26, "unit": "%"}]}
{"substance": "TS1/22 (antibody)", "values": [{"measurement": "% inhibition of neutrophil binding to ICAM-R", "setting": "[2]", "value": 50, "unit": "%"}]}
{"substance": "60.3 (antibody)", "values": [{"measurement": "Inhibition (%) of CD18-dependent JY cell binding", "setting": "[3]", "value": 100, "unit": "%"}]}
